Here are results for 17 molecules from patent US20160008485A1 (Pfizer, published 2016).

The term Kd denotes the free concentration of one partner at which half of the binding sites on the other are occupied at equilibrium, for simple one-to-one binding. Read a high Kd as weaker binding.

Values joined by “and” are separate entries in the source; they are usually repeats but may differ in a detail not shown here. Equal entries are not always repeated.

T1: human truncated recombinant 5T4 protein (5T4-tm-_myc_his) (human, UniProt Q13641 32-355)
T1 construct: extracellular domain; Coated on the ELISA plate; construct cited to Boghaert et al. 2008; also called 5T4 antigen; not shown: Myc and histidine tags
T1 sequence (looked up): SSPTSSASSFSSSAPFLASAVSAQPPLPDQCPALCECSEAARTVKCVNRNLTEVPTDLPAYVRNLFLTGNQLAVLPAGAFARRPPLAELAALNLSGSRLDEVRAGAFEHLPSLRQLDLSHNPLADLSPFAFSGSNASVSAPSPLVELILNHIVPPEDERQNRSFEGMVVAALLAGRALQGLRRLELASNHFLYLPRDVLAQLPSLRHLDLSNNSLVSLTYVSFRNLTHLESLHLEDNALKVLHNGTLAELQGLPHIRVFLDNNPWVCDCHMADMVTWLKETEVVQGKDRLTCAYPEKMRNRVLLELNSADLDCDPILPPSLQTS

T2: human 5T4 antigen on cells (MDAMB435/5T4 transfectants; MDA-MB-468) (human, UniProt Q13641 32-420)
T2 sequence (looked up): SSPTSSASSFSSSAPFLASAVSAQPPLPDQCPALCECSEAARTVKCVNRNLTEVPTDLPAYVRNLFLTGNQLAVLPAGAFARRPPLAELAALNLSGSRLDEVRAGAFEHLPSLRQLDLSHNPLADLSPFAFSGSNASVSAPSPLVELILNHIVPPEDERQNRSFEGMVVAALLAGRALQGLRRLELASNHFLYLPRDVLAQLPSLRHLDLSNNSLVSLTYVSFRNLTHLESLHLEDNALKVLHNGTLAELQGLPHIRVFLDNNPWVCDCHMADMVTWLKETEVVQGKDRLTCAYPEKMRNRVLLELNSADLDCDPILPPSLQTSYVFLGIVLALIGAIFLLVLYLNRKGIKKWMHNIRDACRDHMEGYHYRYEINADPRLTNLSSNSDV

B1: 5T4-T359C (antibody, human IgG1, kappa)
heavy: not shown
light: DIQMTQSPSSLSASVGDRVTITCKASQSVSNDVAWYQQKPGKAPKLLIYFATNRYTGVPSRFSGSGYGTDFTLTISSLQPEDFATYYCQQDYSSPWTFGQGTKVEIKRTVAAPSVFIFPPSDEQLKSGTASVVCLLNNFYPREAKVQWKVDNALQSGNSQESVTEQDSKDSTYSLSSTLTLSKADYEKHKVYACEVTHQGLSSPVTKSFNRGEC
B2: 5T4-L398C (antibody, human IgG1, kappa)
heavy: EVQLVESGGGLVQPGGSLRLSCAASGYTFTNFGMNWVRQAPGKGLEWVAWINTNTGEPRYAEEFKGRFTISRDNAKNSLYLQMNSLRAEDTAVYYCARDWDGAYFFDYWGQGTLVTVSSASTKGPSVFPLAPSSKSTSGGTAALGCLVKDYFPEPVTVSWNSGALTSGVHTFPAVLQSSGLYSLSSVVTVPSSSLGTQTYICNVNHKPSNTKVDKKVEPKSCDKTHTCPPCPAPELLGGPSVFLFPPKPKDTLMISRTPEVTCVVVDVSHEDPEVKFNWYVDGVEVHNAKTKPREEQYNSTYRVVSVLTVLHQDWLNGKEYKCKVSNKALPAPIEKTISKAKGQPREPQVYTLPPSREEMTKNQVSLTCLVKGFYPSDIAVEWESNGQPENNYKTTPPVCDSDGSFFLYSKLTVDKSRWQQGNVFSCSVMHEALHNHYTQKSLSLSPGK
light: DIQMTQSPSSLSASVGDRVTITCKASQSVSNDVAWYQQKPGKAPKLLIYFATNRYTGVPSRFSGSGYGTDFTLTISSLQPEDFATYYCQQDYSSPWTFGQGTKVEIKRTVAAPSVFIFPPSDEQLKSGTASVVCLLNNFYPREAKVQWKVDNALQSGNSQESVTEQDSKDSTYSLSSTLTLSKADYEKHKVYACEVTHQGLSSPVTKSFNRGEC
B3: 5T4-F404C (antibody, human IgG1, kappa)
heavy: not shown
light: DIQMTQSPSSLSASVGDRVTITCKASQSVSNDVAWYQQKPGKAPKLLIYFATNRYTGVPSRFSGSGYGTDFTLTISSLQPEDFATYYCQQDYSSPWTFGQGTKVEIKRTVAAPSVFIFPPSDEQLKSGTASVVCLLNNFYPREAKVQWKVDNALQSGNSQESVTEQDSKDSTYSLSSTLTLSKADYEKHKVYACEVTHQGLSSPVTKSFNRGEC
B4: 5T4-S440C (antibody, IgG1)
heavy: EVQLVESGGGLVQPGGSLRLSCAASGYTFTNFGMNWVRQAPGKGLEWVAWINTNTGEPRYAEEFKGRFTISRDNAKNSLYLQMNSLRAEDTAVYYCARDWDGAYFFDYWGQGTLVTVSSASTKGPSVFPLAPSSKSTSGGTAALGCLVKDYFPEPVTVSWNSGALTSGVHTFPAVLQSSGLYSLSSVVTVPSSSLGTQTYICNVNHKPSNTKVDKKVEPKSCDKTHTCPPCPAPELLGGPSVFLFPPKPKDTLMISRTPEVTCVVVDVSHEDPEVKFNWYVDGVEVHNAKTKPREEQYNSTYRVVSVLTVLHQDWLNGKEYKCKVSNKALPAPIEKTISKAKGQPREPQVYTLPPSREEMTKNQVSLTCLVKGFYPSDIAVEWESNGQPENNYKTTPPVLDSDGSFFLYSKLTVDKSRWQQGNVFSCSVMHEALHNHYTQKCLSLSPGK
light: DIQMTQSPSSLSASVGDRVTITCKASQSVSNDVAWYQQKPGKAPKLLIYFATNRYTGVPSRFSGSGYGTDFTLTISSLQPEDFATYYCQQDYSSPWTFGQGTKVEIKRTVAAPSVFIFPPSDEQLKSGTASVVCLLNNFYPREAKVQWKVDNALQSGNSQESVTEQDSKDSTYSLSSTLTLSKADYEKHKVYACEVTHQGLSSPVTKSFNRGEC
B5: 5T4-L398C+V422C-mcMMAD (antibody, human IgG1, kappa)
heavy: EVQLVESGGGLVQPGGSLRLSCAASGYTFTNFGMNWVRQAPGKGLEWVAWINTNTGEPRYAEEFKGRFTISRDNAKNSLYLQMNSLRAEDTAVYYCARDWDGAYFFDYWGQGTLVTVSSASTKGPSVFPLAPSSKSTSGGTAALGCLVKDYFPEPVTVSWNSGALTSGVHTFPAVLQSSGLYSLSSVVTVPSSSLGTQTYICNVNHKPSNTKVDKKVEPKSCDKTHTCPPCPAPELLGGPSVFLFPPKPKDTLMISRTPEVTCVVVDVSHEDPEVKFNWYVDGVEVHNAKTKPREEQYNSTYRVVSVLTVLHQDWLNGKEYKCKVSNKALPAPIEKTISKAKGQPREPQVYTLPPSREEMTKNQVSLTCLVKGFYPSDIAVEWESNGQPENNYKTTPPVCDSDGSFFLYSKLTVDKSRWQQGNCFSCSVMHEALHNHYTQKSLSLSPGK
light: DIQMTQSPSSLSASVGDRVTITCKASQSVSNDVAWYQQKPGKAPKLLIYFATNRYTGVPSRFSGSGYGTDFTLTISSLQPEDFATYYCQQDYSSPWTFGQGTKVEIKRTVAAPSVFIFPPSDEQLKSGTASVVCLLNNFYPREAKVQWKVDNALQSGNSQESVTEQDSKDSTYSLSSTLTLSKADYEKHKVYACEVTHQGLSSPVTKSFNRGEC
modifications: mcMMAD on engineered Cys 398 and Cys 422 (EU)
B6: 5T4-E380C+L398C-mcMMAD (antibody, human IgG1, kappa)
heavy: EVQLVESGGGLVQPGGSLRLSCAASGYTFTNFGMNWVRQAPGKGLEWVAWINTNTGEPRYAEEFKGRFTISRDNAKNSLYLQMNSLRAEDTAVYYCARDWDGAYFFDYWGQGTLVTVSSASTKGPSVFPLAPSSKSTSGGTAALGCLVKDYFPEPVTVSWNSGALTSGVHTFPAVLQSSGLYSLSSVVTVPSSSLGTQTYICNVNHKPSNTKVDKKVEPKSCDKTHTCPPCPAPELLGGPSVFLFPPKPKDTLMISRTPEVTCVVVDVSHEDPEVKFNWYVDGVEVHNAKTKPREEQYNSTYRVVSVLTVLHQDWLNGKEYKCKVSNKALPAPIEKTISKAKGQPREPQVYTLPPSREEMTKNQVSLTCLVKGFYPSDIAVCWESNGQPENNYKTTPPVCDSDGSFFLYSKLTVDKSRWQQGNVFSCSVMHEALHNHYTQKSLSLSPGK
light: DIQMTQSPSSLSASVGDRVTITCKASQSVSNDVAWYQQKPGKAPKLLIYFATNRYTGVPSRFSGSGYGTDFTLTISSLQPEDFATYYCQQDYSSPWTFGQGTKVEIKRTVAAPSVFIFPPSDEQLKSGTASVVCLLNNFYPREAKVQWKVDNALQSGNSQESVTEQDSKDSTYSLSSTLTLSKADYEKHKVYACEVTHQGLSSPVTKSFNRGEC
modifications: mcMMAD on engineered Cys 380 and Cys 398 (EU)
B7: 5T4-E380C-vcMMAD (antibody, human IgG1, kappa)
heavy: not shown
light: DIQMTQSPSSLSASVGDRVTITCKASQSVSNDVAWYQQKPGKAPKLLIYFATNRYTGVPSRFSGSGYGTDFTLTISSLQPEDFATYYCQQDYSSPWTFGQGTKVEIKRTVAAPSVFIFPPSDEQLKSGTASVVCLLNNFYPREAKVQWKVDNALQSGNSQESVTEQDSKDSTYSLSSTLTLSKADYEKHKVYACEVTHQGLSSPVTKSFNRGEC
modifications: vcMMAD (mcValCitPABC-MMAD) on engineered Cys 380 (EU)
B8: 5T4-L398C+L443C-mcMMAD (antibody)
heavy: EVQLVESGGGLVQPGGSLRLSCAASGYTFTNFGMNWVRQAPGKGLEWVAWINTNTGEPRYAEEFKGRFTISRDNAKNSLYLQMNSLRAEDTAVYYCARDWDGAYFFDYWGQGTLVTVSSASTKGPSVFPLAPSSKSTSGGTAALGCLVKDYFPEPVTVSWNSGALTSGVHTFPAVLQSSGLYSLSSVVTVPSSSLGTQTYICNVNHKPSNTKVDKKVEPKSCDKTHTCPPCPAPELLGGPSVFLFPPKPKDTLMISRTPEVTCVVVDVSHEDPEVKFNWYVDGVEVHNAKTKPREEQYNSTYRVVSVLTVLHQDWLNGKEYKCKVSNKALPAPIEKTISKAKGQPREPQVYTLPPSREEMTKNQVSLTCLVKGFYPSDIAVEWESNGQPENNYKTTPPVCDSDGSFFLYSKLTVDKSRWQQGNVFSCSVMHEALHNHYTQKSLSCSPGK
light: DIQMTQSPSSLSASVGDRVTITCKASQSVSNDVAWYQQKPGKAPKLLIYFATNRYTGVPSRFSGSGYGTDFTLTISSLQPEDFATYYCQQDYSSPWTFGQGTKVEIKRTVAAPSVFIFPPSDEQLKSGTASVVCLLNNFYPREAKVQWKVDNALQSGNSQESVTEQDSKDSTYSLSSTLTLSKADYEKHKVYACEVTHQGLSSPVTKSFNRGEC
modifications: mcMMAD on engineered Cys 398 and Cys 443 (EU)
B9: 5T4-L398C-vcMMAD (antibody, human IgG1, kappa)
heavy: not shown
light: DIQMTQSPSSLSASVGDRVTITCKASQSVSNDVAWYQQKPGKAPKLLIYFATNRYTGVPSRFSGSGYGTDFTLTISSLQPEDFATYYCQQDYSSPWTFGQGTKVEIKRTVAAPSVFIFPPSDEQLKSGTASVVCLLNNFYPREAKVQWKVDNALQSGNSQESVTEQDSKDSTYSLSSTLTLSKADYEKHKVYACEVTHQGLSSPVTKSFNRGEC
modifications: vcMMAD (mcValCitPABC-MMAD) on engineered Cys 398 (EU)
B10: 5T4-K392C+L443C-mcMMAD (antibody)
heavy: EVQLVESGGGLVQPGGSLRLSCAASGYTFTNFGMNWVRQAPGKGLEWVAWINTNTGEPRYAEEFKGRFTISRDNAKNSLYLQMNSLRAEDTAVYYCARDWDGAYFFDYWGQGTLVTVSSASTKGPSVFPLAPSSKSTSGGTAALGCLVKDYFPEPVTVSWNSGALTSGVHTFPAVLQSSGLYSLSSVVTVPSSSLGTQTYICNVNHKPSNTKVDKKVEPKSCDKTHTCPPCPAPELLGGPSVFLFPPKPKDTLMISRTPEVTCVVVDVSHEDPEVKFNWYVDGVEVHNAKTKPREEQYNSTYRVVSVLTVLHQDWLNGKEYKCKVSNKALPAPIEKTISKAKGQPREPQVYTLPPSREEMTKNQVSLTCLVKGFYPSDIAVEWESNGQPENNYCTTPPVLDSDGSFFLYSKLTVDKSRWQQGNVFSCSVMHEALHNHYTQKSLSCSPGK
light: DIQMTQSPSSLSASVGDRVTITCKASQSVSNDVAWYQQKPGKAPKLLIYFATNRYTGVPSRFSGSGYGTDFTLTISSLQPEDFATYYCQQDYSSPWTFGQGTKVEIKRTVAAPSVFIFPPSDEQLKSGTASVVCLLNNFYPREAKVQWKVDNALQSGNSQESVTEQDSKDSTYSLSSTLTLSKADYEKHKVYACEVTHQGLSSPVTKSFNRGEC
modifications: mcMMAD on engineered Cys 392 and Cys 443 (EU)
B11: 5T4-E380C+L443C-mcMMAD (antibody)
heavy: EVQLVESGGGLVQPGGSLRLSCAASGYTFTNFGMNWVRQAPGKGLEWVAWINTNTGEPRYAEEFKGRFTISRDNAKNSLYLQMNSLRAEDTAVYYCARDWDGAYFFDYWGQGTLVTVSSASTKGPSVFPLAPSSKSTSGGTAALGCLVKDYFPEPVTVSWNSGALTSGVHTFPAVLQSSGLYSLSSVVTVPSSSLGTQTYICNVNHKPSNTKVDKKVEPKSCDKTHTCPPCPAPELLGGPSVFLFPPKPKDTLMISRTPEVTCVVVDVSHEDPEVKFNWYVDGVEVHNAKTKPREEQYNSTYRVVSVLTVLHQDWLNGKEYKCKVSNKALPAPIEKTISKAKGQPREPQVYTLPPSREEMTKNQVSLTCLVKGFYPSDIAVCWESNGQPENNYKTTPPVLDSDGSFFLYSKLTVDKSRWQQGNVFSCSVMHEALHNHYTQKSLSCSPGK
light: DIQMTQSPSSLSASVGDRVTITCKASQSVSNDVAWYQQKPGKAPKLLIYFATNRYTGVPSRFSGSGYGTDFTLTISSLQPEDFATYYCQQDYSSPWTFGQGTKVEIKRTVAAPSVFIFPPSDEQLKSGTASVVCLLNNFYPREAKVQWKVDNALQSGNSQESVTEQDSKDSTYSLSSTLTLSKADYEKHKVYACEVTHQGLSSPVTKSFNRGEC
modifications: mcMMAD on engineered Cys 380 and Cys 443 (EU)
B12: 5T4-E380C+V422C-mcMMAD (antibody, human IgG1, kappa)
heavy: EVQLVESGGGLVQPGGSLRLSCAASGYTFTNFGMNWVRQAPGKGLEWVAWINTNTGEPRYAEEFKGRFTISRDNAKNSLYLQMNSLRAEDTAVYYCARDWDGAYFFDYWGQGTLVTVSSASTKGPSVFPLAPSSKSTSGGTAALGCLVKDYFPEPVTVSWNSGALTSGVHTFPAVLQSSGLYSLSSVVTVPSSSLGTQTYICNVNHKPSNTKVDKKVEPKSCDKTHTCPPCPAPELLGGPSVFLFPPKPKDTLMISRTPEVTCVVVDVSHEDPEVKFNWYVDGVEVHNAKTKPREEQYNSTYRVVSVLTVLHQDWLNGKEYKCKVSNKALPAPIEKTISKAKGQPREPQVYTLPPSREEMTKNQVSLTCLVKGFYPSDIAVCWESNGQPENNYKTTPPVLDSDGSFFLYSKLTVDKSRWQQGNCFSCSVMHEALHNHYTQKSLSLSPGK
light: DIQMTQSPSSLSASVGDRVTITCKASQSVSNDVAWYQQKPGKAPKLLIYFATNRYTGVPSRFSGSGYGTDFTLTISSLQPEDFATYYCQQDYSSPWTFGQGTKVEIKRTVAAPSVFIFPPSDEQLKSGTASVVCLLNNFYPREAKVQWKVDNALQSGNSQESVTEQDSKDSTYSLSSTLTLSKADYEKHKVYACEVTHQGLSSPVTKSFNRGEC
modifications: mcMMAD on engineered Cys 380 and Cys 422 (EU)
B13: 5T4-K392C-mcMMAD (antibody, human IgG1, kappa)
heavy: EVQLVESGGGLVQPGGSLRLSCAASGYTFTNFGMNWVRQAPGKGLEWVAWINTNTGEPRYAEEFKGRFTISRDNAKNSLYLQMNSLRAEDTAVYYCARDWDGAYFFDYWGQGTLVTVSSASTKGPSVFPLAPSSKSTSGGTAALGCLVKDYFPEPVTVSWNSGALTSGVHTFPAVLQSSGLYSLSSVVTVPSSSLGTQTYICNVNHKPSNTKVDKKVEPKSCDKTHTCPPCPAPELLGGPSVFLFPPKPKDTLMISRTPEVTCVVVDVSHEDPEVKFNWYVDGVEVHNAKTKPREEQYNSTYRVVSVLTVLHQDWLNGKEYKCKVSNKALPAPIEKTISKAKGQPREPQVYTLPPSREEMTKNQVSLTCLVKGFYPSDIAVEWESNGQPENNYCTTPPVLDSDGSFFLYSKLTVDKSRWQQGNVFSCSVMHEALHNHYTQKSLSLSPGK
light: DIQMTQSPSSLSASVGDRVTITCKASQSVSNDVAWYQQKPGKAPKLLIYFATNRYTGVPSRFSGSGYGTDFTLTISSLQPEDFATYYCQQDYSSPWTFGQGTKVEIKRTVAAPSVFIFPPSDEQLKSGTASVVCLLNNFYPREAKVQWKVDNALQSGNSQESVTEQDSKDSTYSLSSTLTLSKADYEKHKVYACEVTHQGLSSPVTKSFNRGEC
modifications: mcMMAD on engineered Cys 392 (EU)
B14: 5T4-L443C-vcMMAD (antibody)
heavy: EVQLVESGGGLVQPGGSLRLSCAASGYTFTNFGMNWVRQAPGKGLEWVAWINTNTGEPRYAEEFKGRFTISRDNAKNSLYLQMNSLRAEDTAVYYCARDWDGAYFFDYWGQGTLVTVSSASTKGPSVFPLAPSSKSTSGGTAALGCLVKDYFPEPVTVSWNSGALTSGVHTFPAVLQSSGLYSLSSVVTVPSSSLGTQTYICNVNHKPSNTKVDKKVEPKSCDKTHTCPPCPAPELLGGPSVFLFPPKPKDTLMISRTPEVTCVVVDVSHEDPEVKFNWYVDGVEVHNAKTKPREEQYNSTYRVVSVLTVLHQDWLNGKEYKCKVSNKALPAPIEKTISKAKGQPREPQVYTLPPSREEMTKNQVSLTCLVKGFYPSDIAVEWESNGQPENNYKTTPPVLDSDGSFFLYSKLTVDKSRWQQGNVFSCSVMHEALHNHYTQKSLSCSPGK
light: DIQMTQSPSSLSASVGDRVTITCKASQSVSNDVAWYQQKPGKAPKLLIYFATNRYTGVPSRFSGSGYGTDFTLTISSLQPEDFATYYCQQDYSSPWTFGQGTKVEIKRTVAAPSVFIFPPSDEQLKSGTASVVCLLNNFYPREAKVQWKVDNALQSGNSQESVTEQDSKDSTYSLSSTLTLSKADYEKHKVYACEVTHQGLSSPVTKSFNRGEC
modifications: vcMMAD (mcValCitPABC-MMAD) on engineered Cys 443 (EU)
B15: 5T4-V422C-vcMMAD (antibody, human IgG1, kappa)
heavy: not shown
light: DIQMTQSPSSLSASVGDRVTITCKASQSVSNDVAWYQQKPGKAPKLLIYFATNRYTGVPSRFSGSGYGTDFTLTISSLQPEDFATYYCQQDYSSPWTFGQGTKVEIKRTVAAPSVFIFPPSDEQLKSGTASVVCLLNNFYPREAKVQWKVDNALQSGNSQESVTEQDSKDSTYSLSSTLTLSKADYEKHKVYACEVTHQGLSSPVTKSFNRGEC
modifications: vcMMAD (mcValCitPABC-MMAD) on engineered Cys 422 (EU)
B16: 5T4-E380C (antibody, human IgG1, kappa)
heavy: not shown
light: DIQMTQSPSSLSASVGDRVTITCKASQSVSNDVAWYQQKPGKAPKLLIYFATNRYTGVPSRFSGSGYGTDFTLTISSLQPEDFATYYCQQDYSSPWTFGQGTKVEIKRTVAAPSVFIFPPSDEQLKSGTASVVCLLNNFYPREAKVQWKVDNALQSGNSQESVTEQDSKDSTYSLSSTLTLSKADYEKHKVYACEVTHQGLSSPVTKSFNRGEC
B17: 5T4-K392C (antibody, human IgG1, kappa)
heavy: not shown
light: DIQMTQSPSSLSASVGDRVTITCKASQSVSNDVAWYQQKPGKAPKLLIYFATNRYTGVPSRFSGSGYGTDFTLTISSLQPEDFATYYCQQDYSSPWTFGQGTKVEIKRTVAAPSVFIFPPSDEQLKSGTASVVCLLNNFYPREAKVQWKVDNALQSGNSQESVTEQDSKDSTYSLSSTLTLSKADYEKHKVYACEVTHQGLSSPVTKSFNRGEC

The target of the first assay is T1, human truncated recombinant 5T4 protein …. As to the kind of experiment: competition ELISA on plate-coated 5T4-tm-_myc_his; competitor: biotinylated wild type anti-5T4 antibody at 1.3 nM, detected with streptavidin-HRP, OD450. (ELISA stands for enzyme-linked immunosorbent assay.)
Protocol: That is, both the variants and the control wild type antibodies comprised human IgG1 Fc regions. […] The contents of the plate were discarded and then the plate was blocked with PBS-CMF pH7.2+0.02% casein for 3 hours at room temperature.
The wells were washed four times with PBS-CMF pH7.2+0.03% tween-20. Streptavidin-HRP (catalog #7100-05, Southern Biotech, (Birmingham, Ala.) diluted 1:10,000 was added and incubated for 30 minutes at room temperature. The wells were washed four times with PBS-CMF pH 7.2+0.03% tween-20 and TMB (BioFx) was added.
Consider B1, for which the “IC50 (read off the curve)” value is around 6 nM.
Still for that read-out and setting: with B2 the figure was around 7 nM.
As for B3, the binding result was “binds”.
Turning to B4, the “IC50 (read off the curve)” value was around 6 nM.

A further assay addresses T2, human 5T4 antigen on cells …. The assay is described as follows: cell-based or functional assay.
For B5, the “IC50, growth inhibition (MTS), MDA-MB-468 cells (5T4 expression 2+)” value (“IC50, growth inhibition (MTS)” for short) is 17 µg/mL and the “IC-50, growth inhibition (MTS), MDAMB435/5T4 cells (5T4 expression 3+)” value (“IC-50, growth inhibition (MTS)” for short) turned out to be 100 ng ADC/ml.
For B6 the same measures were 5.1 µg/mL and 79 ng ADC/ml.
Take B7: the “IC-50, growth inhibition (MTS)” value is 15 ng ADC/ml.
For B8, the “IC50, growth inhibition (MTS)” value was 5.5 µg/mL and 7.1 µg/mL.
Consider B9, for which the “IC-50, growth inhibition (MTS)” value was 14 ng ADC/ml.
Consider B10, for which the “IC50, growth inhibition (MTS)” value is 30 µg/mL and the “IC-50, growth inhibition (MTS)” value turned out to be 98 ng ADC/ml.
With B11, the “IC50, growth inhibition (MTS)” value was 3.3 µg/mL and the “IC-50, growth inhibition (MTS)” value turned out to be 79 ng ADC/ml.
In the case of B12, the “IC50, growth inhibition (MTS)” value was found to be 5 µg/mL and the “IC-50, growth inhibition (MTS)” value came to 100 ng ADC/ml.
For B13 the same measures were 32 µg/mL and 160 ng ADC/ml.
As to B14, the “IC50, growth inhibition (MTS)” value was determined as 1.4 µg/mL and the “IC-50, growth inhibition (MTS)” value was 40 ng ADC/ml.
Consider B15, for which the “IC-50, growth inhibition (MTS)” value stood at 15 ng ADC/ml.

A further assay deals with T3, human FcRn (human, UniProt P55899 24-297; P61769 21-119, limits assumed, biotinylated through an engineered Avi-tag).
T3 construct: Immobilised on a streptavidin chip; not shown: engineered Avi-tag
T3 sequence (P55899 24-297 limits assumed, chain 1 of 2): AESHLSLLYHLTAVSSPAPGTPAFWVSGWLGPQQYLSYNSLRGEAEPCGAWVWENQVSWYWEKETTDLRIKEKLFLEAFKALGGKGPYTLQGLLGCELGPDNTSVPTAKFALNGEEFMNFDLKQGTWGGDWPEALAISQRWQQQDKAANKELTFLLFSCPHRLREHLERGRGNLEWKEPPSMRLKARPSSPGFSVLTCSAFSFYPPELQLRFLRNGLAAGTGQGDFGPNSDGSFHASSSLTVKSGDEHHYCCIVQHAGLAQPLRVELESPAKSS
T3 sequence (P61769 21-119 limits assumed, chain 2 of 2): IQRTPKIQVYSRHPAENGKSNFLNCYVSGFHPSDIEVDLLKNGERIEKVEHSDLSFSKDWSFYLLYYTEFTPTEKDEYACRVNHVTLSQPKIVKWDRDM
As to the kind of experiment: BIAcore SPR, steady state, pH 6.0, biotinylated human FcRn on SA chip. In general terms: Surface plasmon resonance follows binding to a sensor surface in real time, without labels.
Take B16: binding was put at a Kd of 390 nM. In other words, the sub-micromolar range.
Same read-out and setting: as for B2, the figure is 513 nM; as for B17, 384 nM.
Same read-out and setting: with B4 the figure was 608 nM.
